Data published in patent US20170363643A1.

Key:
[1] = molecular target: His-tagged recombinant human SMN protein (ProteinTech, catalog # ag14333) (human) (UniProt Q16637); assay: BLI (BLItz), His-tagged SMN immobilised on the biosensor tip, antibody in solution
[2] = molecular target: His-tagged recombinant human SMN protein (ProteinTech, catalog # ag14333) (human) (UniProt Q16637); assay: Erenna sandwich assay, capture PT 60154-1-Ig; SMN 10 pg/mL, MPs 5 µg/well, Det Ab 100 ng/mL, Cap Ab/MP 25 µg/mg
[3] = molecular target: His-tagged recombinant human SMN protein (ProteinTech, catalog # ag14333) (human) (UniProt Q16637); assay: Erenna sandwich assay, capture PT 60154-1-Ig; SMN 10 pg/mL, MPs 5 µg/well, Det Ab 500 ng/mL, Cap Ab/MP 25 µg/mg
[4] = molecular target: His-tagged recombinant human SMN protein (ProteinTech, catalog # ag14333) (human) (UniProt Q16637); assay: Erenna sandwich assay, capture PT 60154-1-Ig; SMN 10 pg/mL, MPs 5 µg/well, Det Ab 50 ng/mL, Cap Ab/MP 12.5 µg/mg
[5] = molecular target: His-tagged recombinant human SMN protein (ProteinTech, catalog # ag14333) (human) (UniProt Q16637); assay: Erenna sandwich assay, capture PT 60154-1-Ig; SMN 10 pg/mL, MPs 10 µg/well, Det Ab 1000 ng/mL, Cap Ab/MP 12.5 µg/mg
[6] = molecular target: His-tagged recombinant human SMN protein (ProteinTech, catalog # ag14333) (human) (UniProt Q16637); assay: Erenna sandwich assay, capture PT 60154-1-Ig; SMN 10 pg/mL, MPs 10 µg/well, Det Ab 100 ng/mL, Cap Ab/MP 25 µg/mg
[7] = molecular target: His-tagged recombinant human SMN protein (ProteinTech, catalog # ag14333) (human) (UniProt Q16637); assay: Erenna sandwich assay, capture PT 60154-1-Ig; SMN 10 pg/mL, MPs 10 µg/well, Det Ab 500 ng/mL, Cap Ab/MP 12.5 µg/mg
[8] = molecular target: His-tagged recombinant human SMN protein (ProteinTech, catalog # ag14333) (human) (UniProt Q16637); assay: Erenna sandwich assay, capture PT 60154-1-Ig; SMN 10 pg/mL, MPs 10 µg/well, Det Ab 100 ng/mL, Cap Ab/MP 12.5 µg/mg
[9] = molecular target: His-tagged recombinant human SMN protein (ProteinTech, catalog # ag14333) (human) (UniProt Q16637); assay: Erenna sandwich assay, capture PT 60154-1-Ig; SMN 10 pg/mL, MPs 5 µg/well, Det Ab 1000 ng/mL, Cap Ab/MP 25 µg/mg
[10] = molecular target: His-tagged recombinant human SMN protein (ProteinTech, catalog # ag14333) (human) (UniProt Q16637); assay: Erenna sandwich assay, capture PT 60154-1-Ig; SMN 10 pg/mL, MPs 10 µg/well, Det Ab 1000 ng/mL, Cap Ab/MP 25 µg/mg
[11] = molecular target: His-tagged recombinant human SMN protein (ProteinTech, catalog # ag14333) (human) (UniProt Q16637); assay: Erenna sandwich assay, capture PT 60154-1-Ig; SMN 10 pg/mL, MPs 10 µg/well, Det Ab 50 ng/mL, Cap Ab/MP 25 µg/mg
[12] = molecular target: His-tagged recombinant human SMN protein (ProteinTech, catalog # ag14333) (human) (UniProt Q16637); assay: Erenna sandwich assay, capture PT 60154-1-Ig; SMN 10 pg/mL, MPs 5 µg/well, Det Ab 50 ng/mL, Cap Ab/MP 25 µg/mg
[13] = molecular target: His-tagged recombinant human SMN protein (ProteinTech, catalog # ag14333) (human) (UniProt Q16637); assay: Erenna sandwich assay, capture PT 60154-1-Ig; SMN 10 pg/mL, MPs 10 µg/well, Det Ab 500 ng/mL, Cap Ab/MP 25 µg/mg
[14] = molecular target: His-tagged recombinant human SMN protein (ProteinTech, catalog # ag14333) (human) (UniProt Q16637); assay: Erenna sandwich assay, capture PT 60154-1-Ig; SMN 10 pg/mL, MPs 5 µg/well, Det Ab 1000 ng/mL, Cap Ab/MP 12.5 µg/mg
[15] = molecular target: His-tagged recombinant human SMN protein (ProteinTech, catalog # ag14333) (human) (UniProt Q16637); assay: Erenna sandwich assay, capture PT 60154-1-Ig; SMN 10 pg/mL, MPs 10 µg/well, Det Ab 50 ng/mL, Cap Ab/MP 12.5 µg/mg
[16] = molecular target: His-tagged recombinant human SMN protein (ProteinTech, catalog # ag14333) (human) (UniProt Q16637); assay: Erenna sandwich assay, capture PT 60154-1-Ig; SMN 10 pg/mL, MPs 5 µg/well, Det Ab 500 ng/mL, Cap Ab/MP 12.5 µg/mg
[17] = molecular target: His-tagged recombinant human SMN protein (ProteinTech, catalog # ag14333) (human) (UniProt Q16637); assay: Erenna sandwich assay, capture PT 60154-1-Ig; SMN 10 pg/mL, MPs 5 µg/well, Det Ab 100 ng/mL, Cap Ab/MP 12.5 µg/mg

Chain of UniProt Q16637 (Q16637 whole entry): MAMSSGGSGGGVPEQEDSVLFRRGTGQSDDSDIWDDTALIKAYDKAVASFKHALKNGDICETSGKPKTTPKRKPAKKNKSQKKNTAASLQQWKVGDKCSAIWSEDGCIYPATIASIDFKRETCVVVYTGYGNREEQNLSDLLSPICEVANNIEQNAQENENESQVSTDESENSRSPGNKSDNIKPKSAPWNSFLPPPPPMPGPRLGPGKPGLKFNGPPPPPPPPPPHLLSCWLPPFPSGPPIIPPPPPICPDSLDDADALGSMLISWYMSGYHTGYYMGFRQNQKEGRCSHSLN

“BD Biosciences anti-SMN (catalog #610647) (antibody)” was tested, and the kon [1] was 637000 M⁻¹ s⁻¹.
Substance “Enzo anti-SMN1 (catalog # ADI-NBA-202-200) (antibody)” has a Kd [1] of under 0.1 nM, a koff [1] of under 1e-07 s⁻¹ and a kon [1] of 12300 M⁻¹ s⁻¹.
Substance “Millipore anti-SMN2 (catalog # MABE230) (antibody)” has a detected events (DE) (detected events) [2] of 481, a detected events (DE) (detected events) [3] of 2040 and a detected events (DE) (detected events) [4] of 231. For the same substance, the detected events (DE) (detected events) [5] was 3720, the detected events (DE) (detected events) [6] was 505 and the detected events (DE) (detected events) [7] was 2180. The detected events (DE) (detected events) [8] was 523, the detected events (DE) (detected events) [9] was 3440 and the detected events (DE) (detected events) [10] was 3370. It also gave a Kd [1] of under 0.001 nM, a koff [1] of under 1e-07 s⁻¹ and a kon [1] of 105000 M⁻¹ s⁻¹. It also gave a detected events (DE) (detected events) [11] of 269, a detected events (DE) (detected events) [12] of 256 and a detected events (DE) (detected events) [13] of 2140. The detected events (DE) (detected events) [14] was 3570, the detected events (DE) (detected events) [15] was 302 and the detected events (DE) (detected events) [16] was 1960. For the same substance, the detected events (DE) (detected events) [17] was 501.
“ProteinTech anti-SMN2 (catalog #60154-2-Ig) (antibody)” showed a Kd [1] of under 1 nM, a koff [1] of under 1e-07 s⁻¹ and a kon [1] of 884 M⁻¹ s⁻¹.
